B1: ZFYVE21-FLAG [not stated] / LC3B [human (endogenous in HUVEC)] (parent complex)
chain 1: MSSEVSARRDAKKLVRSPSGLRMVPEHRAFGSPFGLEEPQWVPDKECRRCMQCDAKFDFLTRKHHCRRCGKCFCDRCCSQKVPLRRMCFVDPVRQCAECALVSLKEAEFYDKQLKVLLSGATFLVTFGNSEKPETMTCRLSNNQRYLFLDGDSHYEIEIVHISTVQILTEGFPPGGGNARATGMFLQYTVPGTEGVTQLKLTVVEDVTVGRRQAVAWLVAMHKAAKLLYESRDQ
chain 2: not shown

Variants of: B1
Experiment: FLAG co-IP and Western blot (densitometry); transduced HUVECs; read off a plot

Question: How did the response turn out when chain 1 L60A was run?
Answer: The response was ~0.078 Fold Change LC3-II.

Question: chain 1 F57A was tested. Which response did it give?
Answer: The response was ~0.17 Fold Change LC3-II.

Question: For chain 1 L149A, which response is on record?
Answer: The response was ~0.092 Fold Change LC3-II.

Question: For chain 1 Y146A, which response is on record?
Answer: Its response is ~0.036 Fold Change LC3-II.

Source: PMC11213201 (2024)
